B1: Tumor protein 63 (Homo sapiens), Q9H3D4 (parent)
chain: MNFETSRCATLQYCPDPYIQRFVETPAHFSWKESYYRSTMSQSTQTNEFLSPEVFQHIWDFLEQPICSVQPIDLNFVDEPSEDGATNKIEISMDCIRMQDSDLSDPMWPQYTNLGLLNSMDQQIQNGSSSTSPYNTDHAQNSVTAPSPYAQPSSTFDALSPSPAIPSNTDYPGPHSFDVSFQQSSTAKSATWTYSTELKKLYCQIAKTCPIQIKVMTPPPQGAVIRAMPVYKKAEHVTEVVKRCPNHELSREFNEGQIAPPSHLIRVEGNSHAQYVEDPITGRQSVLVPYEPPQVGTEFTTVLYNFMCNSSCVGGMNRRPILIIVTLETRDGQVLGRRCFEARICACPGRDRKADEDSIRKQQVSDSTKNGDGTKRPFRQNTHGIQMTSIKKRRSPDDELLYLPVRGRETYEMLLKIKESLELMQYLPQHTIETYRQQQQQQHQHLLQKQTSIQSPSSYGNSSPPLNKMNSMNKLPSVSQLINPQQRNALTPTTIPDGMGANIPMMGTHMPMAGDMNGLSPTQALPPPLSMPSTSHCTPPPPYPTDCSIVSFLARLGCSSCLDYFTTQGLTTIYQIEHYSMDDLASLKIPEQFRHAIWKGILDHRQLHEFSSPSHLLRTPSSASTVSVGSSETRGERVIDAVRFTLRQTISFPPRDEWNDFNFDMDARRNKQQRIKEEGE

Variants of B1 are the subject of the assay. The settings on record: with hipk2_human HIPK2, Q9H2X6.
hipk2_human HIPK2, Q9H2X6, sequence (Q9H2X6 whole entry, looked up): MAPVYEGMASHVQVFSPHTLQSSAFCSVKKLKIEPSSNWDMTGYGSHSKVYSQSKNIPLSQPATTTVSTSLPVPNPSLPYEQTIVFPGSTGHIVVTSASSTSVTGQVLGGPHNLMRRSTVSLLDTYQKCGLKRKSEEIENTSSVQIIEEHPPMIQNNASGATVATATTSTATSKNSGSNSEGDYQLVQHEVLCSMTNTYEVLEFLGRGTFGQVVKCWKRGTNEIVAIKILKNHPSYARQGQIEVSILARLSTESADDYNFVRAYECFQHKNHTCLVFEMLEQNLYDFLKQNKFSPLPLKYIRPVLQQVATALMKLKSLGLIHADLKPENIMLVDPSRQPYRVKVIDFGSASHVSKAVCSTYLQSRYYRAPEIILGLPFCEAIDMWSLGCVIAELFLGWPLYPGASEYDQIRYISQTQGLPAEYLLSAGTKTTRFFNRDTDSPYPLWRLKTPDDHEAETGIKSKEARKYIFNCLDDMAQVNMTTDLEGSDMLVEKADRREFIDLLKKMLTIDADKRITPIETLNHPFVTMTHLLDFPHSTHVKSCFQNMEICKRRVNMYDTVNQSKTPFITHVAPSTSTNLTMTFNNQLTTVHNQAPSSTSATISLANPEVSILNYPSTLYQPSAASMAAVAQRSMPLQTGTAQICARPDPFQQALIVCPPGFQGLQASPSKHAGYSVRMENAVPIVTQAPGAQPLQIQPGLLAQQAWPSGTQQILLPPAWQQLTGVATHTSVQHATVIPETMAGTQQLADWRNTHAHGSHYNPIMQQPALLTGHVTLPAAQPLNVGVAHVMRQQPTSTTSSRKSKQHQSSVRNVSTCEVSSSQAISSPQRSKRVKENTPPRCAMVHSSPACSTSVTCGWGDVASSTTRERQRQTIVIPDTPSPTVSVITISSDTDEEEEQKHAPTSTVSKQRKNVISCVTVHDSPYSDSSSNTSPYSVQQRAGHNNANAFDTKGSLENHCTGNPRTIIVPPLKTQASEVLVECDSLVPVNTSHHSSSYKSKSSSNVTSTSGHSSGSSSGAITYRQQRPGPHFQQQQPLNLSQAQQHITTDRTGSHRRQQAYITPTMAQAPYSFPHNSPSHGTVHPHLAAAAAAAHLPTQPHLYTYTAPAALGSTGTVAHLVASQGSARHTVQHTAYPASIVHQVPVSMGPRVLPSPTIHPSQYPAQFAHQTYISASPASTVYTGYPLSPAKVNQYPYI
On to T491A, for which the “effect of a mutation on the interaction” value is “disrupting interaction strength”.

(Values after IntAct's records for PubMed 21602882.)
